Patent US20210252150A1 (VANDERBILT UNIVERSITY, published 2021)
Read-outs that look alike come from different tables or passages of the source.

Assays:
[1] = biological target: T1, HA of A/turkey/Wisconsin/1/1966 (H9N2) (influenza A virus (H9N2), UniProt P03457 19-526); assay: Octet (BLI) with HA
[2] = biological target: T2, HA of A/South Carolina/1/1918 (H1N1) (influenza A virus (H1N1), UniProt Q9WFX3 18-529); assay: Octet (BLI) with HA
[3] = biological target: T3, HA of A/Hong Kong/1/1968 (H3N2) (influenza A virus (H3N2), UniProt Q91MA7 17-530); assay: Octet (BLI) with HA
[4] = biological target: HA of A/Japan/305/1957 (H2N2) (influenza A virus (H2N2), UniProt P03451 16-525); assay: Octet (BLI) with HA
[5] = biological target: T2, HA of A/South Carolina/1/1918 (H1N1); assay: ELISA (highest dilution tested 1/50,000)
[6] = biological target: T3, HA of A/Hong Kong/1/1968 (H3N2); assay: ELISA (highest dilution tested 1/50,000)
[7] = biological target: T1, HA of A/turkey/Wisconsin/1/1966 (H9N2); assay: ELISA, recombinant HA
[8] = biological target: T3, HA of A/Hong Kong/1/1968 (H3N2); assay: ELISA, recombinant HA
[9] = biological target: T4, HA of A/Singapore/1/1957 (H2) (influenza A virus (H2), UniProt Q67333 16-525); assay: ELISA, recombinant HA
[10] = biological target: T3, HA of A/Hong Kong/1/1968 (H3N2); assay: ELISA, recombinant HA; remark: listed apart in the source
[11] = biological target: T4, HA of A/Singapore/1/1957 (H2); assay: ELISA, recombinant HA; remark: listed apart in the source
[12] = biological target: T2, HA of A/South Carolina/1/1918 (H1N1); assay: BLI, Fab on immobilized biotinylated HA
[13] = biological target: T3, HA of A/Hong Kong/1/1968 (H3N2); assay: BLI, Fab on immobilized biotinylated HA
[14] = biological target: T2, HA of A/South Carolina/1/1918 (H1N1); assay: BLI, Fab on immobilized biotinylated HA; remark: listed apart in the source
[15] = biological target: T3, HA of A/Hong Kong/1/1968 (H3N2); assay: BLI, Fab on immobilized biotinylated HA; remark: listed apart in the source
[16] = biological target: HA of A/Victoria/3/1975 (H3N2) (influenza A virus (H3N2), UniProt P03435 17-531); assay: BLI, Fab on immobilized biotinylated HA
[17] = biological target: HA of A/Perth/16/2009 (H3N2) (influenza A virus (H3N2), UniProt O11283 17-530); assay: BLI, Fab on immobilized biotinylated HA
[18] = biological target: T4, HA of A/Singapore/1/1957 (H2); assay: ELISA
[19] = biological target: T1, HA of A/turkey/Wisconsin/1/1966 (H9N2); assay: ELISA, recombinant HA; remark: listed apart in the source
[20] = biological target: T4, HA of A/Singapore/1/1957 (H2); assay: ELISA; remark: listed apart in the source
[21] = biological target: T2, HA of A/South Carolina/1/1918 (H1N1); assay: BLI, 1:1 global fit; Table S2 of the text prints 46 for this strain
[22] = biological target: T4, HA of A/Singapore/1/1957 (H2); assay: ELISA; remark: listed apart in the source
[23] = biological target: T4, HA of A/Singapore/1/1957 (H2); assay: ELISA; remark: listed apart in the source

T2 sequence (Q9WFX3 18-529): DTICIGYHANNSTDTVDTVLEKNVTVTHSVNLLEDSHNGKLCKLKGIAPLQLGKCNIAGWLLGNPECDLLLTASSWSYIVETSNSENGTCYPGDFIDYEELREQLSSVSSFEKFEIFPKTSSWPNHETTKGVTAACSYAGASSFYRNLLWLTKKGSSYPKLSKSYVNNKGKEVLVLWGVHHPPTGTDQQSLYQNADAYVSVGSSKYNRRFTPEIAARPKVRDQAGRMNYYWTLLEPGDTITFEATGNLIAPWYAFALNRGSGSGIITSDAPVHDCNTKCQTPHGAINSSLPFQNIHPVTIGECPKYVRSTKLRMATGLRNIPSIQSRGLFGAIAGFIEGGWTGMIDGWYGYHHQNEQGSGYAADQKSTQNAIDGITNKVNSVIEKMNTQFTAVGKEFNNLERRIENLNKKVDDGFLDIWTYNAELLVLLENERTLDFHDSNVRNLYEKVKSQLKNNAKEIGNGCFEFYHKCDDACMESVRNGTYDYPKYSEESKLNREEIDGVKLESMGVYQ
T1 sequence (P03457 19-526 limits assumed): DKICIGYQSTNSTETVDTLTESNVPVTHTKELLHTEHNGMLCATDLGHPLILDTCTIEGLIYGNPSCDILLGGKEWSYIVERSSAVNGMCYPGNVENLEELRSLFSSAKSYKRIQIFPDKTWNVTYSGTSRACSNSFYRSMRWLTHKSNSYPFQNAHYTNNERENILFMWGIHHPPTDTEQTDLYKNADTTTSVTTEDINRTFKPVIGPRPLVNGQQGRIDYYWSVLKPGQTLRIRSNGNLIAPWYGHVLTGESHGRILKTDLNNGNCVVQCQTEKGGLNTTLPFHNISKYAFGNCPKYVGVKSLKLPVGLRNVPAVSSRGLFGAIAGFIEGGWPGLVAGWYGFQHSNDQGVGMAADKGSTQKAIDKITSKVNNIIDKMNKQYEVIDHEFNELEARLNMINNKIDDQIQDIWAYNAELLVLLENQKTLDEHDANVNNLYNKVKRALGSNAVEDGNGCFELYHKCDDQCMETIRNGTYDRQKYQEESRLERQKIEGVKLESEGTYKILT
Sequence of HA of A/Victoria/3/1975 (H3N2) (P03435 17-531 limits assumed): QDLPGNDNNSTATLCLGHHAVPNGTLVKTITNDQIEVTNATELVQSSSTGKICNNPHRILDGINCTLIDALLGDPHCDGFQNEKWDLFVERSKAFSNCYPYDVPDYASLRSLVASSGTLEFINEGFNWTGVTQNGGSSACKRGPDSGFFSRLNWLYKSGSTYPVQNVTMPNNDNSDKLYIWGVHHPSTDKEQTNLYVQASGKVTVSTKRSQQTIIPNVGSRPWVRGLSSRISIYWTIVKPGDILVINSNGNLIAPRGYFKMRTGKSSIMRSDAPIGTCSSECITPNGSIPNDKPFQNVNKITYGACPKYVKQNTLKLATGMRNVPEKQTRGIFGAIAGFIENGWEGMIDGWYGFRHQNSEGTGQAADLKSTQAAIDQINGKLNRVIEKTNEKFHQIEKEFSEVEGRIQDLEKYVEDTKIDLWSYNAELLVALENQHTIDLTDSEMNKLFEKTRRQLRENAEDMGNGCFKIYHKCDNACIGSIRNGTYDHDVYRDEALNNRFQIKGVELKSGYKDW

B1: H5.31 (antibody, V domains shown)
VH: EVQLVQSGGGLVQPGGSLRLSCEASRFTSSSYWITWVRQAPGKGLEWVANIKQDGSEKYFVDSVKGRFTISRDNASNSLYLQMSSLRAEDTAVYYCARGFLERLLLGRQGAYYYGMDVWGQGTTVTVSS
VL: DIQMTQSPSSLSASVGDRVTMTCRASQSISSSLNWYQQKPGKAPKLLIYAASNLQSGVPSRFSGSGSGTDFTLTISSLQPEDFATYYCQQSYTMPPELTFGGGTKVQIK
Kd [1]: 0.017 µM | Kd [2]: 0.00017 µM | Kd [3]: 0.0054 µM | Kd [4]: 0.00013 µM | EC50 [5]: 0.031 mg/L | EC50 [6]: 0.024 mg/L

B2: H5.28 (antibody, V domains shown)
VH: EVQLVESGGGLVQPGGSLRLSCAASGFTFSTYWMTWVRQAPGKGLEWVANINQDGGEKYFVDSVKGRFTISRDNAKNSLFLQMNTLRAEDTAVYYCARGFLERLLLGRQGAYYYGMDVWGQGTTVTVSS
VL: DIQMTQSPSSLSASVGDRVSMTCRASQIISSSLNWYQQKPGKAPKLLIYAASNLQSGVPSRFSGSGSGTDFTLTISSLQPEDFATYYCQQSYSTPPELTFGGGTKVEIK
Kd [1]: 0.065 µM | Kd [2]: 0.00011 µM | Kd [3]: 0.075 µM | Kd [4]: 0.00019 µM | EC50 [5]: 0.081 mg/L | EC50 [6]: 16 mg/L

B3: UCA (antibody, V domains shown)
VH: QVQLQESGPGLVKPSETLSLTCTVSGGSVSSGSYYWSWIRQPPGKGLEWIGYIYYSGSTNYNPSLKSRVTISVDTSKNQFSLKLSSVTAADTAVYYCARGTEDLGYCSGGSCPNHWGQGTLVTV
VL: not shown
EC50 [7]: 0.359 mg/L | EC50 [8]: 0.054 mg/L | EC50 [9]: 0.07 mg/L | EC50 [10]: 0.021 mg/L | EC50 [11]: 0.028 mg/L

B4: FluA-20 UCA Fab (unmutated common ancestor of FluA-20) (Fab, V domains shown)
VH: QVQLQESGPGLVKPSETLSLTCTVSGGSVSSGSYYWSWIRQPPGKGLEWIGYIYYSGSTNYNPSLKSRVTISVDTSKNQFSLKLSSVTAADTAVYYCARGTEDLGYCSGGSCPNHWGQGTLVTV
VL: not shown
Kd [12]: 0.937 µM | Kd [13]: 0.486 µM | Kd [14]: 0.937 µM | Kd [15]: 0.486 µM | binding result [16]: no binding (tested: 2 µM) | binding result [17]: no binding (tested: 2 µM)

B5: FluA-20 (hybridoma-produced IgG) (antibody, V domains shown)
VH: QVQLQESGPGLVKPSETLSLTCSVSGVSVTSDIYYWTWIRQPPGKGLEWIGYIFYNGDTNYNPSLKSRVTMSIDTSKNEFSLRLTSVTAADTAVYFCARGTEDLGYCSSGSCPNHWGQGTLVTVSS
VL: DIQMTQSPSSLSASIGDRVTITCRPSQNIRSFLNWFQHKPGKAPKLLIYAASNLQSGVPSRFSGSGSGTEFTLTIRSLQPEDFATYYCQQSYNTPPTFGQGTKVEIK
EC50 [7]: 0.063 mg/L | EC50 [18]: 0.007 mg/L | EC50 [19]: 0.022 mg/L | EC50 [11]: 0.009 mg/L | EC50 [20]: 0.18 mg/L

B6: FluA-20 Fab (Fab, V domains shown)
VH: QVQLQESGPGLVKPSETLSLTCSVSGVSVTSDIYYWTWIRQPPGKGLEWIGYIFYNGDTNYNPSLKSRVTMSIDTSKNEFSLRLTSVTAADTAVYFCARGTEDLGYCSSGSCPNHWGQGTLVTVSS
VL: DIQMTQSPSSLSASIGDRVTITCRPSQNIRSFLNWFQHKPGKAPKLLIYAASNLQSGVPSRFSGSGSGTEFTLTIRSLQPEDFATYYCQQSYNTPPTFGQGTKVEIK
Kd [21]: ~0.048 µM | Kd [12]: 0.046 µM | Kd [14]: 0.046 µM | Kd [16]: 3.46 µM

B7: rFluA-20 (recombinant FluA-20 IgG) (antibody, V domains shown)
VH: QVQLQESGPGLVKPSETLSLTCSVSGVSVTSDIYYWTWIRQPPGKGLEWIGYIFYNGDTNYNPSLKSRVTMSIDTSKNEFSLRLTSVTAADTAVYFCARGTEDLGYCSSGSCPNHWGQGTLVTVSS
VL: DIQMTQSPSSLSASIGDRVTITCRPSQNIRSFLNWFQHKPGKAPKLLIYAASNLQSGVPSRFSGSGSGTEFTLTIRSLQPEDFATYYCQQSYNTPPTFGQGTKVEIK
EC50 [22]: 0.011 mg/L | EC50 [7]: 0.193 mg/L | EC50 [9]: 0.178 mg/L | EC50 [19]: 0.016 mg/L | EC50 [23]: 0.011 mg/L
